According to paper PMC5813103, “Hydroxynitrile lyases from cyanogenic millipedes: molecular cloning, heterologous expression, and whole-cell biocatalysis for the production of (R)-mandelonitrile” (Scientific Reports, 2018):

Target: Hydroxynitrile lyase from Nedyopus tambanus tambanus (NttHNL) (Nedyopus tambanus tambanus)
Test: SEC; gel filtration of the purified native enzyme; Superdex 200 10/300 equilibrated with PBS; native 52400 Da against 28800 Da on SDS-PAGE

stoichiometry N: 2
Substance: Hydroxynitrile lyase from Nedyopus tambanus tambanus (NttHNL) (enzyme)
